The values that follow come from US20100111970A1 (published 2010).

Assay [1] deals with T1, human nerve growth factor (NGF) (human, UniProt P01138 122-241).
T1 construct: Immobilized on CM5 chip in BIAcore assays; also called human NGF; hNGF
In words: BIAcore SPR screening of Fab clones on immobilized human NGF. The protocol: (§1) Affinities of anti-NGF Fabs and monoclonal antibodies were determined using the BIAcore3000™ surface plasmon resonance (SPR) system (BIAcore, INC, Piscaway N.J.). CM5 chips were activated with N-ethyl-N′-(3-dimethylaminopropyl)-carbodiinide hydrochloride (EDC) and N-hydroxysuccinimide (NHS) according to the supplier's instructions. Human NGF was diluted into 10 mM sodium acetate pH 4.0 and injected over the activated chip at a concentration of 0.005 mg/mL. Using variable flow time across the individual chip channels, two ranges of antigen density were achieved: 100-200 response units (RU) for detailed kinetic studies and 500-600 RU for screening assays. The chip was blocked with ethanolamine. […] HBS-EP buffer (0.01M HEPES, pH 7.4, 0.15 NaCl, 3 mM EDTA, 0.005% Surfactant […]) was used as running buffer for all the BIAcore assays.
(§2) For affinity screening experiments, each library was further paired with the corresponding CDR-grafted light or heavy chain (for example, the H1/H2 library was paired with CDR-grafted light chain), the antibody was expressed, and affinity to human NGF of the individual clones was screened using the BIACORE surface plasmon resonance (SPR) system (BIAcore, Inc. Piscataway, N.J.) according to the manufacturer's instructions and as described above. koff, kₒₙ and KD were determined. […]
A general note: SPR reads the build-up and loss of mass on a sensor chip optically.

The target in assay [2] is T1, human nerve growth factor (NGF). Description: BIAcore SPR; KD calculated from koff using kon 4e4 M^-1s^-1. How it is done:
as §1, §2

One may read the koff as a measure of how fast the partners let go of each other. Lower therefore signals slow dissociation. As a reminder, the Kd is the constant that tells how readily two partners part at equilibrium.

T1 sequence (P01138 122-241 limits assumed): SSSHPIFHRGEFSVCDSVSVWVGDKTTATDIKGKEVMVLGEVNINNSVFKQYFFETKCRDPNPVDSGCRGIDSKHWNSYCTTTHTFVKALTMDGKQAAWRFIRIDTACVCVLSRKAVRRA

B1: light chain library clone L81 (Fab, V domains shown)
VH: QVQLQESGPGLVKPSETLSLTCTVSGFSLIGYDINWIRQPPGKGLEWIGMIWGDGTTDYNSALKSRVTISKDTSKNQFSLKLSSVTAADTAVYYCARGGYYYGTSYYFDYWGQGTLVTVS
VL: DIQMTQSPSSLSASVGDRVTITCRAFQAISNQLNWYQQKPGKAPKLLIYYTSRFHTGVPSRFSGSGSGTDFTFTISSLQPEDIATYYCQQSKTLPYTFGQGTKLEIKR
notes: Substitutions derived by comparing printed CDRs with the 8L2-6D5 control
Regarding B1, the koff in assay [1] turned out to be 0.00074 s⁻¹. The Kd in assay [2] is 18 nM.
